Target: Hsp32
Assay: native MS

## Hsp32 (natural protein)
  stoichiometry N: 2

From paper PMC7212079
